Tests used:
hCD64 [1] = molecular target: T1, hCD64 (human, UniProt P12314 16-288); experiment: SPR % Rmax, compared with 12D6-IgG1f-P238K
T1 construct: also called FcγRI
Method: (§1) The binding of human FcγRs to antibodies was studied by surface plasmon resonance using a Biacore 8K system (GE Healthcare, USA). For these studies, protein A was immobilized on flow cells 1-4 of the CM5 sensor chip using standard ethyl (dimethylaminopropyl) carbodiimide (EDC)/N-hydroxysuccinimide […] chemistry, with ethanolamine blocking, in a running buffer of 10 mM HEPES pH 7.4, 150 mM NaCl, 3 mM EDTA, 0.05% surfactant p20, to a density of ˜3000 RU. Purified 12D6-24-IgG1f antibody (10 μg/mL) or expression supernatants of all other antibodies (diluted to ˜10 μg/ml) were captured on the protein A surface to a density of ˜1000-1200 RU, and the binding of FcγR analytes was tested in running buffer consisting of 10 mM NaPO₄, 130 mM NaCl, 0.05% p20, buffer (PBS-T) pH 7.1 at 25° C., using 120 s association time and 120 s dissociation time at a flow rate of 20 μL/min. The data were analyzed using Biacore 8K evaluation software by determining the measured binding response as a percentage of theoretical maximum binding response for each antibody (% Rmax), based on the level of captured antibody, assuming 100% fractional activity and only taking into account protein mass without glycosylation.

hCD64 [2] = molecular target: T1, hCD64; experiment: SPR, antibody captured on protein A, FcγR as analyte
Method: as §1

T1 sequence (P12314 16-288 limits assumed): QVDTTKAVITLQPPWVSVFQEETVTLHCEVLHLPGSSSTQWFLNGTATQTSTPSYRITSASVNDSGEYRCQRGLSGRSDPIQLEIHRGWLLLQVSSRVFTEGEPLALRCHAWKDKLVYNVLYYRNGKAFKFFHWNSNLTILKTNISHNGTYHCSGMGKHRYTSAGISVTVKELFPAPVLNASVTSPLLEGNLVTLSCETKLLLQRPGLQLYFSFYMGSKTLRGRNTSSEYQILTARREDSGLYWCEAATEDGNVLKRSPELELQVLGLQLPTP

Binder	fold reduction of binding against P238K alone (hCD64 [1])	binding result (hCD64 [2])
12D6-IgG1f-L235E-P238K (antibody, Tested as expression supernatant; copies: 2 + 2) heavy: not shown light: DIVMTQTPLSLPVTPGEPASISCRSSQSLVHSNANTYLHWYLQKPGQSPQLLIYKLTNRFFGVPDRFSGSGSGTDFTLKISRVEAEDVGVYYCSQSIHVPWTFGGGTKVEIKRTVAAPSVFIFPPSDEQLKSGTASVVCLLNNFYPREAKVQWKVDNALQSGNSQESVTEQDSKDSTYSLSSTLTLSKADYEKHKVYACEVTHQGLSSPVTKSFNRGEC	~10 fold	
12D6-IgG2.3G1.3f-P238K (antibody, copies: 2 + 2) heavy: QVQLVQSGAEVKKPGASVKVSCKASGYTFTGYNMNWVRQAPGQGLEWMGNIDPYYGNTNYNQKFKGRVTMTTDTSTSTAYMELRSLRSDDTAVYYCARLGLQLYALDYWGQGTTVTVSSASTKGPSVFPLAPCSRSTSESTAALGCLVKDYFPEPVTVSWNSGALTSGVHTFPAVLQSSGLYSLSSVVTVPSSNFGTQTYTCNVDHKPSNTKVDKTVERKSCVECPPCPAPEAEGAKSVFLFPPKPKDTLMISRTPEVTCVVVDVSHEDPEVKFNWYVDGVEVHNAKTKPREEQYNSTYRVVSVLTVLHQDWLNGKEYKCKVSNKALPAPIEKTISKAKGQPREPQVYTLPPSREEMTKNQVSLTCLVKGFYPSDIAVEWESNGQPENNYKTTPPVLDSDGSFFLYSKLTVDKSRWQQGNVFSCSVMHEALHNHYTQKSLSLSPGK light: DIVMTQTPLSLPVTPGEPASISCRSSQSLVHSNANTYLHWYLQKPGQSPQLLIYKLTNRFFGVPDRFSGSGSGTDFTLKISRVEAEDVGVYYCSQSIHVPWTFGGGTKVEIKRTVAAPSVFIFPPSDEQLKSGTASVVCLLNNFYPREAKVQWKVDNALQSGNSQESVTEQDSKDSTYSLSSTLTLSKADYEKHKVYACEVTHQGLSSPVTKSFNRGEC		no binding (tested: 1 µM)

Next, values leading:

fold reduction of binding against P238K alone (hCD64 [1])	binding result (hCD64 [2])	Binder
	no binding (tested: 1 µM)	12D6-IgG1.3f-P238K (antibody, Tested as expression supernatant; IgG1.3f carries L234A, L235E and G237A; copies: 2 + 2) heavy: QVQLVQSGAEVKKPGASVKVSCKASGYTFTGYNMNWVRQAPGQGLEWMGNIDPYYGNTNYNQKFKGRVTMTTDTSTSTAYMELRSLRSDDTAVYYCARLGLQLYALDYWGQGTTVTVSSASTKGPSVFPLAPSSKSTSGGTAALGCLVKDYFPEPVTVSWNSGALTSGVHTFPAVLQSSGLYSLSSVVTVPSSSLGTQTYICNVNHKPSNTKVDKRVEPKSCDKTHTCPPCPAPEAEGAKSVFLFPPKPKDTLMISRTPEVTCVVVDVSHEDPEVKFNWYVDGVEVHNAKTKPREEQYNSTYRVVSVLTVLHQDWLNGKEYKCKVSNKALPAPIEKTISKAKGQPREPQVYTLPPSREEMTKNQVSLTCLVKGFYPSDIAVEWESNGQPENNYKTTPPVLDSDGSFFLYSKLTVDKSRWQQGNVFSCSVMHEALHNHYTQKSLSLSPGK light: DIVMTQTPLSLPVTPGEPASISCRSSQSLVHSNANTYLHWYLQKPGQSPQLLIYKLTNRFFGVPDRFSGSGSGTDFTLKISRVEAEDVGVYYCSQSIHVPWTFGGGTKVEIKRTVAAPSVFIFPPSDEQLKSGTASVVCLLNNFYPREAKVQWKVDNALQSGNSQESVTEQDSKDSTYSLSSTLTLSKADYEKHKVYACEVTHQGLSSPVTKSFNRGEC
	no binding (tested: 1 µM)	12D6-IgG2.5G1.3f-P238K (antibody, copies: 2 + 2) heavy: QVQLVQSGAEVKKPGASVKVSCKASGYTFTGYNMNWVRQAPGQGLEWMGNIDPYYGNTNYNQKFKGRVTMTTDTSTSTAYMELRSLRSDDTAVYYCARLGLQLYALDYWGQGTTVTVSSASTKGPSVFPLAPSSRSTSESTAALGCLVKDYFPEPVTVSWNSGALTSGVHTFPAVLQSSGLYSLSSVVTVPSSNFGTQTYTCNVDHKPSNTKVDKTVERKCCVECPPCPAPEAEGAKSVFLFPPKPKDTLMISRTPEVTCVVVDVSHEDPEVKFNWYVDGVEVHNAKTKPREEQYNSTYRVVSVLTVLHQDWLNGKEYKCKVSNKALPAPIEKTISKAKGQPREPQVYTLPPSREEMTKNQVSLTCLVKGFYPSDIAVEWESNGQPENNYKTTPPVLDSDGSFFLYSKLTVDKSRWQQGNVFSCSVMHEALHNHYTQKSLSLSPGK light: DIVMTQTPLSLPVTPGEPASISCRSSQSLVHSNANTYLHWYLQKPGQSPQLLIYKLTNRFFGVPDRFSGSGSGTDFTLKISRVEAEDVGVYYCSQSIHVPWTFGGGTKVEIKRTVAAPSVFIFPPSDEQLKSGTASVVCLLNNFYPREAKVQWKVDNALQSGNSQESVTEQDSKDSTYSLSSTLTLSKADYEKHKVYACEVTHQGLSSPVTKSFNRGEC

Reference: patent US20230140384A1 (Bristol-Myers Squibb, published 2023)
